Source: CN117247456A (SANYOU BIO INC, dated 2023)

Tests used:
[1] = target: T1, 人PD-L1 on huPD-L1-CHO-S细胞 (human, UniProt Q9NZQ7 19-290); assay: flow cytometry on huPD-L1-CHO-S cells (reference antibody)
T1 construct: whole, on cells; also called 细胞表面PD-L1

重组人PD-L1-mFc = target: T2, 重组人PD-L1-mFc (human, UniProt Q9NZQ7 19-238); assay: ELISA, plate coated with PD-L1-mFc, anti-human IgG Fc-HRP (reference antibody)
T2 construct: also called 人重组蛋白PD-L1-mFc; PD-L1蛋白

重组人PD-L1-His = 重组人PD-L1-His (human, UniProt Q9NZQ7 19-238); assay: SPR, Biacore T200, PD-L1-His as analyte (reference antibody)

Measured: binding result

T1 sequence (Q9NZQ7 19-290): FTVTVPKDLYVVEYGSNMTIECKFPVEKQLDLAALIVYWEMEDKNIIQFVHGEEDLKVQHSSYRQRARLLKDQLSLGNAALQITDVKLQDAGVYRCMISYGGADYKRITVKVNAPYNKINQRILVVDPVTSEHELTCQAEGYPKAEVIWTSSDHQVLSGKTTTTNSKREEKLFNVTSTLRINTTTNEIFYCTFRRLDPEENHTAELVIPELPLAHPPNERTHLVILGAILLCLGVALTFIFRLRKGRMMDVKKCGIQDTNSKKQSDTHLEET
T2 sequence (Q9NZQ7 19-238 limits assumed): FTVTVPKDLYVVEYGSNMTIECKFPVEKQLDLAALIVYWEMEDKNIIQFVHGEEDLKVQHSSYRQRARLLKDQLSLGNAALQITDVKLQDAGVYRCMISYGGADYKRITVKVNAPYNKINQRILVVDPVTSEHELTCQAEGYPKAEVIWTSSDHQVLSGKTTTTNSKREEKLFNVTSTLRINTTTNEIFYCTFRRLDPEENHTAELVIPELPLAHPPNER
Chain of 重组人PD-L1-His (Q9NZQ7 19-238 limits assumed): as above

B1: 抗人PD-L1抗体D21-4 (antibody, V domains shown)
VH: EVQLVESGGGLVQPGGSLRLSCAASRTDRNINTMHWYRQAPGKGREWVGTIFIDLNTIVTDSVKGRFTISRDNAKNTLYLQMNTLRAEDTAVYYCAADVSGYGRAWGQGTTVTVSS
notes: also called 亲本抗体D21-4; 亲本PD-L1抗体D21-4; not shown: rest of the 'complete control antibody' (constant part / Fc) is not described
binds: all assays above
